Key:
Assay in all cases: ITC; protein 0.05 mM, 4-mer peptide 1 mM as injectant, B buffer (50 mM Tris-HCl pH 7.5, 200 mM NaCl), 25 °C, Microcal Auto-ITC200; single site-binding model
[1] = target: purified N132D ZZ fragment p62 (122-175) of the ITC table (Fig. 3b) (human) (UniProt Q13501)
[2] = target: GST-ZZ_(122-175), wild type, bacterially expressed (human) (UniProt Q13501)
[3] = target: purified wild type ZZ fragment p62 (122-175) of the ITC table (Fig. 3b) (human) (UniProt Q13501)

| Binder | Kd [1] | Kd [2] | Kd [3] |
| --- | --- | --- | --- |
| YIFS [YIFS tetrapeptide (Nt-Tyr)] | 107 µM | 16.1 µM | 20.7 µM |
| RIFS [RIFS tetrapeptide (Nt-Arg)] | 2.85 µM | 4.4 µM | 6.9 µM |

Reference: publication PMC8038991, “R-catcher, a potent molecular tool to unveil the arginylome” (Cellular and Molecular Life Sciences: CMLS, 2021)
